# Literature values in paper PMC3910004.
# Biological target: T1, human interleukin-6 receptor (hIL-6R) (Homo sapiens) (UniProt P08887)
# T1 sequence: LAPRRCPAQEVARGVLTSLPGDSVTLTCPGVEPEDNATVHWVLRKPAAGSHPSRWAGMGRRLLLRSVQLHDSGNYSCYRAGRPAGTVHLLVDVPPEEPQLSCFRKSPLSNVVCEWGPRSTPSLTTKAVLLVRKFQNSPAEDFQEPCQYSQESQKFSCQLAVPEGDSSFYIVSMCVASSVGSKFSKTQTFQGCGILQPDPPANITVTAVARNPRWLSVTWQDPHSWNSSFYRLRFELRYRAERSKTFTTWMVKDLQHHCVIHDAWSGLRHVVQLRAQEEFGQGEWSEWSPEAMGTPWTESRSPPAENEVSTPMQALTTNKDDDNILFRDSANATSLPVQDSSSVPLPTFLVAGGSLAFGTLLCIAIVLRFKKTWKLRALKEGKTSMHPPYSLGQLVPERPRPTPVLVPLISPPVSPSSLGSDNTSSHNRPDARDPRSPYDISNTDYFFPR
# Settings: Cell binding by flow cytometry, 50 nM conjugate, 45 min, serum-free medium, 37 °C (stated for the uptake in cytotoxicity assays); binding buffer details not in …
sequence,measurement,value
GGGGAGGCUGUGGUGAGGG [AIR-3A],Kd,8.5 nM
